Data on two molecules can be found in patent publication US20030157688A1 (Scripps Research, published 2003).

The labels stand for the following.
B1: Ad5 penton base protein (in the capsid of Ad5.βgal.ΔF / Ad5 vector particles) (other)
chain: MRRAAMYEEGPPPSYESVVSAAPVAAALGSPFDAPLDPPFVPPRYLRPTGGRNSIRYSELAPLFDTTRVYLVDNKSTDVASLNYQNDHSNFLTTVIQNNDYSPGEASTQTINLDDRSHWGGDLKTILHTNMPNVNEFMFTNKFKARVMVSRLPTKDNQVELKYEWVEFTLPEGNYSETMTIDLMNNAIVEHYLKVGRQNGVLESDIGVKFDTRNFRLGFDPVTGLVMPGVYTNEAFHPDIILLPGCGVDFTHSRLSNLLGIRKRQPFQEGFRITYDDLEGGNIPALLDVDAYQASLKDDTEQGGGGAGGSNSSGSGAEENSNAAAAAMQPVEDMNDHAIRGDTFATRAEEKRAEAEAAAEAAAPAAQPEVEKPQKKPVIKPLTEDSKKRSYNLISNDSTFTQYRSWYLAYNYGDPQTGIRSWTLLCTPDVTCGSEQVYWSLPDMMQDPVTFRSTRQISNFPVVGAELLPVHSKSFYNDQAVYSQLIRQFTSLTHVFNRFPENQILARPPAPTITTVSENVPALTDHGTLPLRNSIGGVQRVTITDARRRTCPYVYKALGIVSPRVLSSRTF
notes: The assays used whole virions; also called fiberless adenovector (penton base at the vertices)
B2: chimeric 5T3H fiber protein (Ad5 fiber tail and shaft with the Ad3 fiber knob) (other)
chain: MKRARPSEDTFNPVYPYDTETGPPTVPFLTPPFVSPNGFQESPPGVLSLRLSEPLVTSNGMLALKMGNGLSLDEAGNLTSQNVTTVSPPLKKTKSNINLEISAPLTVTSEALTVAAAAPLMVAGNTLTMQSQAPLTVHDSKLSIATQGPLTVSEGKLALQTSGPLTTTDSSTLTITASPPLTTATGSLGIDLKEPIYTQNGKLGLKYGAPLHVTDDLNTLTVATGPGVTINNTSLQTKVTGALGFDSQGNMQLNVAGGLRIDSQNRRLILDVSYPFDAQNQLNLRLGQGPLFINSAHNLDINYNKGLYLFTASNNSKKLEVNLSTAKGLMFDATAIAINAGDGLEFGSPNAPNTNPLKTKIGHGLEFDSNKAMVPKLGTGLSFDSTGAITVGNKNNDKLTLWTGPKPEANCIIEYGKQNPDSKLTLILVKNGGIVNGYVTLMGASDYVNTLFKNKNVSINVELYFDATGHILPDSSSLKTDLELKYKQTADFSARGFMPSTTAYPFVLPNAGTHNENYIFGQCYYKASDGALFPLEVTVMLNKRLPDSRTSYVMTFLWSLNAGLAPETTQATLITSPFTFSYIREDD

For test [1], the target named is B2. As to the kind of experiment: fiber-deleted vector grown in 644 cells.
Test [2] deals with T1, wild-type adenovirus type 5 (Ad5) fiber protein (human adenovirus type 5, UniProt P11818 1-581).
T1 construct: also called type 5 fiber protein; recombinant Ad5 fiber
T1 sequence: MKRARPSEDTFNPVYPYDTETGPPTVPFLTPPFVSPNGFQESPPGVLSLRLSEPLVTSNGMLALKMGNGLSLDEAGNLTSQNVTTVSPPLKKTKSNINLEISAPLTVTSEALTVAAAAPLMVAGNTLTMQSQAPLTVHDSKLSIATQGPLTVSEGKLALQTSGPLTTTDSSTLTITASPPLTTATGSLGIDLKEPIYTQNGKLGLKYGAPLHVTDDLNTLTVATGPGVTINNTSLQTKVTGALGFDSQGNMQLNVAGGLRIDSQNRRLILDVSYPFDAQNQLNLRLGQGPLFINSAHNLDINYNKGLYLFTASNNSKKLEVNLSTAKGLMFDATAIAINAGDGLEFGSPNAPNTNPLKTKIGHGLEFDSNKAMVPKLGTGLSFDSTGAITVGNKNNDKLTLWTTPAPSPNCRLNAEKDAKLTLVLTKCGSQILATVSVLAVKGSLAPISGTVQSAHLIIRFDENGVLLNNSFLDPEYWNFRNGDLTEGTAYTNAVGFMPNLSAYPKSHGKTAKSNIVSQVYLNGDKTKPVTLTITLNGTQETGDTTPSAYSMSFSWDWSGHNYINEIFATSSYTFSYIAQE
In words: Western blot of particles purified from 633 cells. For orientation: A western blot detects proteins with antibodies after separation by electrophoresis.

The target in another test is Ad3 receptor. As to the kind of experiment: cell-based or functional assay.

For the molecule B1, the binding result in test [1] and in test [2] was “binds” throughout.

As to B2, the “infection of EBV-transformed lymphoblastoid cell lines (X-gal stained cells)” value with Ad3 receptor was at least 10 fold.
